Where a chain is given by its changes, count along the chain named. ± gives the standard deviation of the averaged measurements.
B1: library; a variant is named by its letters at X, in order (parent)
chain: MNIQIGELAKRTACPVVTIRFYEQEGLLPPPGRSRGNFRLYGEEHVERLQFIRHCRSLDMPLSXVRTLLSYRKRPDQDCGEVXMLLDEHXRQVESRIGALLELXHXLVELREACSGARPAQSCGILQGLSDCVCDTRGTTAHXSD
B2: library; numbered along this chain (parent)
chain: B1 chain with X64D, X83N, X90I, X104K, X106H, X143P

Experiments:
[1] = variants of: B1; test: sfGFP reporter fluorescence (15 h) (µM FITC); higher = higher leak; conditions: library round: Round 3b; ligand: none
Procedure: (§1)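 Cell-free biosensing: 1 µL Echo-assembled CFE reactions with linear PbrR variant templates (5 nM) and pPbrR-sfGFP reporter, with 1 µM Pb, 30 µM Zn or no ligand; endpoint sfGFP fluorescence after 15 h at 30 °C calibrated as µM FITC. Round 3b rational combinatorial PbrR mutants; 3 biological replicates.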

[2] = variants of: B1; test: sfGFP reporter fluorescence (15 h) (µM FITC); higher = stronger transcriptional activation; conditions: library round: Round 3b
Procedure: as §1

[3] = variants of: B2; test: sfGFP reporter fluorescence (15 h) (µM FITC); higher = higher leak; conditions: library round: Round 0; ligand: none
In short: (§2)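 An Echo normalized PCR-made linear PbrR templates to 5 nM and assembled 1 μL reactions in BL21 Star (DE3) PANOx-SP extract carrying the pPbrR-sfGFP reporter plasmid and 30 μg/mL GamS. Reactions received 1 µM lead chloride, 30 µM zinc acetate or no metal and stood 15 hr at 30 °C. Fluorescence at 485/528 nm (Synergy Neo2) was converted with FITC standard curves made in 50 mM sodium borate pH 8.5. Endpoint sfGFP signal is given in µM FITC, from up to three biological replicates.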

[4] = variants of: B2; test: sfGFP reporter fluorescence (15 h) (µM FITC); higher = stronger transcriptional activation; conditions: library round: Round 0
In short: as §2

Variant	sfGFP reporter fluorescence [1]	sfGFP reporter fluorescence ([2]; ligand: 1 µM Pb)	sfGFP reporter fluorescence ([2]; ligand: 30 µM Zn)	sfGFP reporter fluorescence [3]	sfGFP reporter fluorescence ([4]; ligand: 1 µM Pb)	sfGFP reporter fluorescence ([4]; ligand: 30 µM Zn)
KFAVAR	0.0482 ± 0.0037	0.398 ± 0.028	0.0563 ± 0.00097	–	–	–
KFAVAT	0.0465 ± 0.0014	0.356 ± 0.02	0.057 ± 0.0017	–	–	–
D64K G128I	–	–	–	0.371 ± 0.021	1.32 ± 0.067	4.45 ± 0.14
C134E	–	–	–	0.0608 ± 0.001	0.0651 ± 0.0034	0.929 ± 0.095
C134R	–	–	–	0.0731 ± 0.0023	0.0993 ± 0.0042	1.66 ± 0.018
C134Q	–	–	–	0.0652	0.0953 ± 0.001	1.33 ± 0.4
D131C	–	–	–	0.05919 ± 0.00026	0.0779 ± 0.0013	0.242 ± 0.062
R20E	–	–	–	0.0603 ± 0.0023	0.0616 ± 0.0015	0.06175 ± 0.00026
Y41H	–	–	–	0.0599 ± 0.0029	0.0618 ± 0.0023	0.0678 ± 0.0026
Y41N	–	–	–	0.0594 ± 0.0031	0.0601	0.0597 ± 0.0015
Y41T	–	–	–	0.0597 ± 0.0026	0.05974 ± 0.00052	0.0592 ± 0.0039
Y41E	–	–	–	0.0607 ± 0.00078	0.0625 ± 0.00078	0.0619 ± 0.0015
V82P	–	–	–	0.057 ± 0.00078	0.05754 ± 0.00052	0.0577 ± 0.0013
V82I	–	–	–	0.0572 ± 0.0015	0.0658 ± 0.0023	0.676 ± 0.0088
R111S	–	–	–	0.06102 ± 0.00026	0.0951 ± 0.0023	1.14 ± 0.11
E43I	–	–	–	0.05186 ± 0.00026	0.0806 ± 0.0093	1.11 ± 0.078
E43D	–	–	–	0.05754 ± 0.00052	0.072 ± 0.012	0.744 ± 0.036
P61V	–	–	–	0.0651 ± 0.0013	0.09 ± 0.0029	0.302
F21L	–	–	–	0.0612 ± 0.001	0.0581 ± 0.0013	0.0696 ± 0.001
F21E	–	–	–	0.0596 ± 0.00078	0.06175 ± 0.00026	0.0608 ± 0.0015
F21H	–	–	–	0.0596 ± 0.0018	0.0629 ± 0.0023	0.276 ± 0.0091
F21D	–	–	–	0.0616 ± 0.0015	0.0614 ± 0.0013	0.0599 ± 0.00078

Source: the supplement of paper PMC12783771
